From the supplement of paper PMC12042874
± gives the uncertainty stated by the source.

Assay: amyloid nucleation score (Sup35N fusion, yeast selection) (log enrichment); library NNK3; higher = more nucleation; inactive = no reads after selection
How it was run: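 Peptides of 20 random codons, each fused to Sup35N, were expressed in psi-negative yeast. Cells were induced with 100 μM copper sulfate for 24 hours and grown 7 days at 30°C on medium lacking adenine and uracil, and plasmid inserts before and after selection were Illumina-sequenced. Nucleation scores are DiMSum log enrichments of output over input reads, centred on the mode score of non-aggregating sequences, and sequences under 100 input reads were excluded.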

Amyloid nucleation score, 1.7 ± 0.063:
AILLNWNCVNFPCFEIYPYL

Amyloid nucleation score, -0.167 ± 0.75:
ALFSFDNSNYMVSNGAIGRV

Amyloid nucleation score, 0.239 ± 0.58:
CFTNNSIHVYSLWIKTRHFF

Amyloid nucleation score, 2.25 ± 0.082:
APLYTANAMHSRCILSWVFL

Amyloid nucleation score, 0.614 ± 0.32:
AITYTTSLKVSFVSKGVSGA

Amyloid nucleation score, -0.239 ± 1.4:
ASYEDFWDNLA

Amyloid nucleation score, 0.655 ± 0.15:
ALSPHSNCIYNCLSCCCDTD

Amyloid nucleation score, -0.481 ± 0.9:
AHREFLFRMTVWNITKGLIL

Amyloid nucleation score, -0.701 ± 1.2:
AHRQMGNFR

Amyloid nucleation score, 2.22 ± 0.092:
ASYLCVFCDRAFQCGPYRYI

Amyloid nucleation score, -0.032 ± 1.1:
ASCSVVEKISFTDPGIQWIR

Amyloid nucleation score, 1.69 ± 0.056:
ASMYIMFTTVNKILFIEISD

Amyloid nucleation score, -0.434 ± 1.1:
AVFSKGISCGLH

Amyloid nucleation score, 2.54 ± 0.054:
ALFSKYIYITFNYYFMQKWL

Amyloid nucleation score, 1.98 ± 0.089:
ARTIELMECNISVNSIVWQG

Amyloid nucleation score, 2.12 ± 0.074:
CDSRSCFKVYASLAARSDQR

Amyloid nucleation score, -0.955 ± 1.2:
AIGDVTVGRIHFDMHCGLGR

Amyloid nucleation score, -0.363 ± 0.27:
AVTYENRSNLIVKVLVI

Amyloid nucleation score, 0.771 ± 0.2:
CFYSNQASQVLLLYHP

Amyloid nucleation score, 0.699 ± 0.19:
CGTFNCYNGAL

Amyloid nucleation score, 0.807 ± 0.18:
CHDLLHVVIEIPVCFLCTKG

Amyloid nucleation score, -0.714 ± 2.4:
AKWCVF

Amyloid nucleation score, 2.78 ± 0.077:
AVIVVINNQTH

Amyloid nucleation score, 0.785 ± 0.18:
CFSFYVGCGRMQEPPRLGAG

Amyloid nucleation score, inactive:
AAISVFCEVFK
AAVHWSTIYYSLGMVKDEGG
ACCIAGL
ACCQTDRFRFEVALVGFVVG
ACFEAICGYSTLSQ
ACLIRPRFYPVNHNSVVASL
ACMNSSSRSVMLLMCYYFSN
ACSRGKCFTNRGSRWHLFVC
ACYNSKRMGGMYNSRVLDHD
ADCPCYVTGCWLSYWMLYI
ADCPPRYRLPWGELGLRGEI
ADMGGSVGHVSNKSVSSNLL
ADVGGD
ADVLFKFNSDMRRS
ADVLTNRIGPCIKEGIKLGI
AEARTPIECVC
AEFYERLPFDIPLHSYFNAW
AEVPEFTLYVSFYSWVYFRL
AEWLSCLRWIGK
AFSISVLM
AGCIGFNVFEH
AGGSLWKAL
AGIVRWVVFISSYWGPLLLL
AGTKSLRNYGWCLYDGGFYH
AHEQTQSDLPGVELPRWDR
AHVKLNDVFSWI
AHVSLVSLRKRLPYFGFASV
AILSTLVNTVNRELRQGRLM
AIRGVARLRVMDRVSALPLR
AITHRIDS
ALCRASEVIWWARVSGGCVL
ALSGSGLRLTPMKQ
AMDRTNNIEDEQWIMNKYWV
AMMVRCFRDPKHEK
AMNFYI
AMSTDLLSVACL
ANECDGVYNGAKCSRWNFLL
ANMCNCKAIHRFNKFNICSR
APRFRFQTVHRSFVRSRKLR
AQFVWMKLHICRTDLGESH
ARDCGRFIFLWWRYSLTKRH
ARICIAACIRAICDGFSGRR
ARISEFTESWNRRCYTLRYC
ARKMTIRPPLFPAWHSFELK
ARSDGLF
ARSDHYYAVIGDVRMNILPI
ARVVVG
ARWGDSLSRDLTSGYLFGVG
ASFFNILNPISIVVILKRFC
ASGSHSVT
ASHHVDSTYDTYYWQHKAKK
ASKENCLIVFIVYQSIIETC
ASLRYYGMAVVSSVYKMVVV
ASPYTGDWDTVMC
ASRSDCTRYIMTTMIWWHFP
ASSPLITRDDKAHGLEFHSY
ASVPAN
ASVRSGYDMVGFGILFGQMS
ASYYF
ATFIFSDRQSHIHLYSNTQY
ATIYICGLNPNRVAACIVLE
ATLRAFATVYFHLVTHMFNF
ATPKPKGHY
ATTADLDRCSLFPKLRILRG
ATTGR
AVCEMKIHCYITVPDPSRPR
AVECSDRTTARWLNVTYAYF
AVFTCCCPRK
AVIIDIHGINPMG
AVQQKSECFLFAFLILRDWV
AVRCPLNMHLRGRAVVQYKG
AVSFLWHTYVLGGLLKLFGG
AVWRYSVSYTLYHSSGLLES
AVYLGGGHKSCRRSRRWLVS
AWASIDVSNAL
AWTGGSLGLTNI
AWVDLVLRGFKGYLTYRSLH
AWVPMFFSLHMWHCNALNFC
AWWMLN
AYAQSYND
AYELHKTPNGPSPSESLALI
AYLGLLNSAKFFKYLRSYAW
AYLYNFLWDTGSVIWVVGHL
AYMRHFF
AYMVTKLVKR
AYSVSRSALRSEANRIGSR
AYSVYVFALYRLNFYVLLRN
AYSYAYGHCRYGSEVS
AYWRREKMCSVPGGSWSGWV
CAAIRGKL
CAKMHTCVYSFCTMEWSLTR
CALHRAGRTLVCFIYIFSGM
CAPLSVVWNSRGFM
CASCEVFMLR
CASTDKNPFLPVNAAITYGL
CCRLHRGISVNPILQSYGIM
CCSMARAITISGNVELKFD
CDHCRDKCMANRMSSRSLRW
CDLWIHWS
CDVFVSY
CEKDRMNLWLTRDG
CELGDSGVIDDKIICVCYYL
CEMGFLEPL
CEMLMGRVIFWSPQPQLWNY
CESPLERSSAKYCRWGSCWG
CEYCFGMTSLTAWWCYVLRC
CEYLGPVYIM
CFASWN
CFCLSRL
CFDTSLSVPGPMCYWKTKHG
CFELDVRDEA
CFIWMSYGVPLNCNCLPQRP
CFLSQLNTSDACVCLRFGWG
CFSAASTVKNMIEGCCRGMY
CFSDGPLRVHSIGQRWLRCR
CGSVNVSTRYKD
CGWIFNLYSRRIQALEGRAS

Amyloid nucleation score, 0.019 ± 0.3:
ASWPNYYWSNSLILFRDKCV

Amyloid nucleation score, 1.14 ± 0.11:
AMQIYTLVMGSPRDFDYWKV

Amyloid nucleation score, 0.867 ± 0.24:
CFNYRLDFTQNWYMLIQCCH

Amyloid nucleation score, 0.533 ± 0.4:
CAHKSGQACKHGVF

Amyloid nucleation score, 1.11 ± 0.11:
AVSLCSDLYFVFGKWFGCEL

Amyloid nucleation score, 1.55 ± 0.13:
AYSSWALMLGHTMCIYGGFR

Amyloid nucleation score, 0.238 ± 0.44:
ATSTTSLRVNLDHCAETFQN

Amyloid nucleation score, 0.486 ± 0.33:
CENIVGMPDRRISSVAGPDG

Amyloid nucleation score, 0.907 ± 0.17:
AFCRNRTNVCMICYLRSG

Amyloid nucleation score, -0.088 ± 0.9:
AIYRIWCYGA

Amyloid nucleation score, 0.204 ± 0.38:
AVENSQFW

Amyloid nucleation score, 1.11 ± 0.18:
AKFSQVLLLQWGSSPDIDRE

Amyloid nucleation score, 1.49 ± 0.1:
AFFGCCYGRDLVEHW

Amyloid nucleation score, 1.64 ± 0.09:
ASWFYNIKKLNCCHFVQFAD

Amyloid nucleation score, 2.34 ± 0.079:
ANICVFFSLDWFCPLFLSHK

Amyloid nucleation score, 1.03 ± 0.11:
AFFVVTIFVVNTSCDNVLVS

Amyloid nucleation score, -0.117 ± 0.84:
ASDSDTCCGFVRGAVYWRLT

Amyloid nucleation score, 3.19 ± 0.068:
AGNIACVLSLCTYNARYRTR

Amyloid nucleation score, -0.103 ± 0.64:
ASNCDPMIHFLMHKVYKSFY
